Measurements: article PMC9606830, “GhBEE3-Like gene regulated by brassinosteroids is involved in cotton drought tolerance”

T1: GhBZR1-His (Gossypium hirsutum, UniProt A0A1B0QVW2 1-313)
T1 sequence: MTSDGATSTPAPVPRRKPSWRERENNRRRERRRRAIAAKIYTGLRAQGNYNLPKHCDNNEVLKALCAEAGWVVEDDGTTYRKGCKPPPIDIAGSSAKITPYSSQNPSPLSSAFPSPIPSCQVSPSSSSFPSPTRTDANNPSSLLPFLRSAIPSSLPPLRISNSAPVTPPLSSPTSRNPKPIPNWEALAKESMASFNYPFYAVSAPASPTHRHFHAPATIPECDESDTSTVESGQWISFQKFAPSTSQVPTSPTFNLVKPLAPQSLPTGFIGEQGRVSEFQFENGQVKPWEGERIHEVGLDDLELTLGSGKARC


Experiments:
[1] = target: T1, GhBZR1-His; experiment: EMSA; LightShift Chemiluminescent EMSA Kit (Thermo); buffer, salt, pH and temperature not stated; conditions: protein: recombinant; tags: C-terminal His (pET30a); chain copies: 2; label: biotin on both strands (text: 3'-end and 5'-end); blunt
[2] = target: T1, GhBZR1-His; experiment: competition; unlabelled competitor against biotinylated GhBEE3-Like Probe; significantly reduced the shift; LightShift Chemiluminescent EMSA Kit (Thermo); buffer, salt, pH and temperature not stated; conditions: protein: recombinant; tags: C-terminal His (pET30a); chain copies: 2; label: none; blunt

| Binder | binding result [1] | binding result [2] |
| --- | --- | --- |
| GhBEE3-Like Probe (dsDNA) DNA 1: ACAATTACACGTGACATGTC DNA 2: GACATGTCACGTGTAATTGT | binds | – |
| Mutant Probe (dsDNA) DNA 1: ACAATTAAGCGGAACATGTC DNA 2: GACATGTTCCGCTTAATTGT | no binding | – |
| Competitor Probe (dsDNA) DNA 1: ACAATTACACGTGACATGTC DNA 2: GACATGTCACGTGTAATTGT | – | binds |
